In patent US20180127735A1:

Legend:
[1] = target: thrombin (Homo sapiens (Human)) (UniProt P00734); assay: cell-based or functional assay
protein C = protein C (UniProt P04070)

| Substance | clotting time of fibrinogen by thrombin with thrombomodulin at saturating concentrations [1] [min] | enzyme-mediated conversion of protein C into activated protein C (aPC), thrombin in the absence of TM (protein C) |
| --- | --- | --- |
| full-length thrombomodulin (from UniProt P07204 19-575) (receptor) | < 305 |  |
| thrombin |  | minimal activated protein C (aPC) activity was generated |
